One block for each molecule: values may come before it. Non-standard residues stand in square brackets, D forms with d. No end group written: not given here. pS = N[C@@H](COP(=O)(O)O)C(=O)O; Lip = Lipoyl solubility tag; His6x = hexahistidine tag
Tests used:
LRP6-GFP [1] = molecular target: LRP6-GFP (UniProt O75581); test: coIP (GFP IP, α-HA blot densitometry)
LRP6-GFP [2] = molecular target: LRP6-GFP (UniProt O75581); test: coIP (GFP IP, α-Axin1 blot densitometry); settings: co-expressed with wt GSK3β-HA
[3] = molecular target: His6x-Lip-L2_(LRP6) (LRP6_(1539-1613)) (UniProt O75581); test: ITC; binding of GSK3 or Axin to the CPPSPYT element of the distal LRP6 ctail; constructs and concentrations not told
His6x-Lip-L2_(LRP6) (LRP6_(1539-1613)), sequence (O75581 1539-1613): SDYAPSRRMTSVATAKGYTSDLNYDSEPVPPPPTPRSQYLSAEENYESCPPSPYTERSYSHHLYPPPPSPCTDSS

[4] = molecular target: His6x-Lip-A5_(Axin) (Axin_(308-366)) (UniProt O15169); test: ITC; 50 μM Axin fragment or GSK3β titrated with 500 μM Lip-L1_(LRP6); 25 °C, 25 mM sodium phosphate pH 6.7, 150 mM NaCl; one set of binding sites; apparent KD assuming 1:1
GSK3β-HA = GSK3β-HA (UniProt P49841); test: coIP (GFP IP, α-HA blot densitometry)
FLAG-Axin1 = FLAG-Axin1 (UniProt O15169); test: coIP (GFP IP, α-FLAG blot densitometry); settings: HEK293T cells, co-expressed with wt GSK3β-HA
Axin1 LIRα, 345-361 = Axin1 LIRα, 345-361 (UniProt O15169); test: ITC; settings: reference: unphosphorylated 43mer peptide; sites S317,S321,S325
[5] = molecular target: T1, His6x-Lip-L1_(LRP6) (LRP6_(1463-1538) bearing YYYF > A) (UniProt O75581 1463-1538, YYYF > A (Y1517; position worked out from S1516 and S1521, p-0048) | YYYF > A …, Lipoyl solubility tag omitted. Mutated positions are not given; inferred because LIRup (308-344) should contain exactly five Asp and one Glu, in the order D-E-D4, and the text says all …); test: ITC
T1 sequence: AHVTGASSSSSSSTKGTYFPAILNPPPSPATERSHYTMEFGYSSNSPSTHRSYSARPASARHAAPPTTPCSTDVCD

[6] = molecular target: T2, GSK3β-K85R (recombinant, full-length) (UniProt P49841 1-420, K85R); test: NMR titration; BEST-TROSY peak height attenuation (bleaching): 80 μM 15N-labelled protein +/- 80 μM unlabelled partner; 25 mM sodium phosphate pH 6.7, 150 mM NaCl, 293 K; settings: both partners purified
T2 construct: glycogen synthase kinase 3β, catalytically dead; also called catalytically-dead GSK3; source: E. coli BL21-CodonPlus(DE3)-RIL, purified (glutathione agarose, 3C cleavage, Superdex 200); not shown: GST, N-terminal, cleaved

[7] = molecular target: T3, phosphorylated Axin LIRup peptide (43PPP, Axin_(308-351) including pS317, pS321, pS325) (UniProt O15169 308-351, phosphoserine at 317, 321 and 325); test: ITC; 50 μM synthetic 43mer or 43PPP peptide in the cell titrated with 500 μM wt or RKR mutant Axin Lip-LIRα; 25 °C, 25 mM sodium phosphate pH 6.7, 150 mM NaCl; settings: both partners purified
T3 construct: Axin1 LIRup with 7 residues of LIRα; A308-Q351 counts 44 residues though the peptide is called 43PPP; source: synthetic peptide, bought: Biomatic
T3 peptide (looked up): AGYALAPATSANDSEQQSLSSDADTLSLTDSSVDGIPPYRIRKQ

Axin Lip-LIRα = molecular target: T4, Axin Lip-LIRα (UniProt O15169 345-361); test: ITC; phosphorylated 43PPP
T4 chain: PYRIRKQHRREMQESVQ

RKR mutant Axin Lip-LIRα = molecular target: T5, RKR mutant Axin Lip-LIRα (UniProt O15169 345-361, RKR > A (R347) | RKR > A (K350) | RKR > A (R354)); test: ITC; phosphorylated 43PPP
T5 chain: PYAIRAQHRAEMQESVQ

[8] = molecular target: His6x-AP2μ (YxxΦ-binding domain of rat AP2μ) (rat); test: ITC; 114 or 100 μM His6x-AP2μ titrated with 2 mM (SYRHFA) or 1.74 mM (…) His6x-Lip-YxxΦ peptide; 25 °C, 50 mM Tris-HCl pH 7.4, 300 mM NaCl
[9] = molecular target: T6, His6x-Lip-L1_(LRP6) (LRP6_(1463-1538) bearing YYYF > A) (UniProt O75581 1463-1538, YYYF > A (Y1517; position worked out from S1516 and S1521, p-0048) | YYYF > A …); test: ITC
T6 sequence: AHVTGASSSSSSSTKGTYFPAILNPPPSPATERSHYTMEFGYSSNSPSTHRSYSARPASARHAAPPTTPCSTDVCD

[10] = HEK293T cells, co-expressed with wt FLAG-Axin1

LRP6-GFP, sequence (O75581 20-1613): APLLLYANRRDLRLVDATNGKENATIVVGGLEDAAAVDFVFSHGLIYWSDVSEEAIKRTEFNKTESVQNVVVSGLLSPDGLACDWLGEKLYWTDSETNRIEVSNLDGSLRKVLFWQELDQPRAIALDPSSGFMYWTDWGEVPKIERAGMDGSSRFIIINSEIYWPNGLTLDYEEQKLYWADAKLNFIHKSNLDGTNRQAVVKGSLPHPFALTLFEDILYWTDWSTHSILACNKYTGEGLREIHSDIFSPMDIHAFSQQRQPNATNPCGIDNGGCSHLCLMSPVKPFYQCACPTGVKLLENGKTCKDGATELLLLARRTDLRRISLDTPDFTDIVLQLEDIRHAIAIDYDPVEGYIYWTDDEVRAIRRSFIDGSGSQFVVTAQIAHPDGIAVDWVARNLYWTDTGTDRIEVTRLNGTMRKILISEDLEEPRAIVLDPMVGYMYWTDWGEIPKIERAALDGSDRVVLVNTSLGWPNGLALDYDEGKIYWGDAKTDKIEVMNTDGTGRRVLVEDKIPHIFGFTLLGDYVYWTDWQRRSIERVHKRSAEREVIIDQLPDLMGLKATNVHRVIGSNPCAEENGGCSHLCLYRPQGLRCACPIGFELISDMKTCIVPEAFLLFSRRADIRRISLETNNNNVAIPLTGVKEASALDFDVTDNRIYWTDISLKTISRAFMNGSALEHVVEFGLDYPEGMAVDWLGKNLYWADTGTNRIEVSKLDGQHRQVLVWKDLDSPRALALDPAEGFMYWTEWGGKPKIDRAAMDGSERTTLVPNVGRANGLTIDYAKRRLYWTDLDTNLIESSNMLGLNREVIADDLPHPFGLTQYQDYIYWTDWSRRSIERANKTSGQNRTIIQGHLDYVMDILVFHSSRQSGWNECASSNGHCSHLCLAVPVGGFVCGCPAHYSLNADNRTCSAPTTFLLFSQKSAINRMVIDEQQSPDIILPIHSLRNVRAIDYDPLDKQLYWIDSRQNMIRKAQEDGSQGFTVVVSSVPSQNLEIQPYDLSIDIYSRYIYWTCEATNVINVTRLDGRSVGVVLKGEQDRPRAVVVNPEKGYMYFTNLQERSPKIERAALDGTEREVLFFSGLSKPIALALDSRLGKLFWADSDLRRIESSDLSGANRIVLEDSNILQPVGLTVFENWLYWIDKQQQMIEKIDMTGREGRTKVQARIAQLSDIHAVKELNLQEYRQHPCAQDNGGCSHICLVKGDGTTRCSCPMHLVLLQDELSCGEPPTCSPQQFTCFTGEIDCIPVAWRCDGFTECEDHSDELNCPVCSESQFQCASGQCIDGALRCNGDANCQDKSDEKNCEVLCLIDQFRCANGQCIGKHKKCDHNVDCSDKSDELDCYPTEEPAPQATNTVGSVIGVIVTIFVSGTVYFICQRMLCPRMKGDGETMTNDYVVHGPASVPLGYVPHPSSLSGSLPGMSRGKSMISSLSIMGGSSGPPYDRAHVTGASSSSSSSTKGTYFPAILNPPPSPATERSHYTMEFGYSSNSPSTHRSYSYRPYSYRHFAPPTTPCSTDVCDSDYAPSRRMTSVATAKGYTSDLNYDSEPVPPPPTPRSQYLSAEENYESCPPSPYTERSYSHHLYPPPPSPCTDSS

ratio to parent (LRP6-GFP [1]; [10]): 0.05
ratio to parent (LRP6-GFP [1]; co-expressed with FLAG-Axin1 S1>A (the wt = 1.00 lane has wt Axin; wt GSK3β-HA with Axin S1>A reads 2.98)): 0.03
Molecule: GSK3β-HA (from UniProt P49841) VE>GR

Kd [3]: > 500 µM
Molecule: GSK3β (recombinant, full-length wt) (from UniProt P49841 1-420) (enzyme)

ratio to parent (GSK3β-HA; [10]): 0.07
ratio to parent (GSK3β-HA; co-expressed with FLAG-Axin1 S1>A (the wt = 1.00 lane has wt Axin)): 0.01
ratio to parent (FLAG-Axin1): 0.11
Molecule: LRP6-GFP (from UniProt O75581) m10 (PPPSPxS>PPPAPxA, motifs A-E)

Kd [5]: 118 µM
B1: Lip-DED4 > A (in Lip-A5_(Axin)) (domain or fragment)
chain: AGYALAPATSANASAQQSLSSAAATLSLTASSVAGIPPYRIRKQHRREMQESVQVNGRV

Kd (Axin Lip-LIRα): 47.9 µM
Kd (RKR mutant Axin Lip-LIRα): 448 µM
B4: phosphorylated Axin LIRup peptide (43PPP, Axin_(308-351) including pS317, pS321, pS325) (peptide)
peptide: AGYALAPAT[pS]AND[pS]EQQ[pS]LSSDADTLSLTDSSVDGIPPYRIRKQ

Kd [8]: 8 µM
B5: His6x-Lip-… peptide (peptide)
chain: {His6x-Lip}-SYRPYSYRHFA

More lines, now with the values behind:

Molecule: FLAG-Axin1 (from UniProt O15169) S493A; S497A
ratio to parent (LRP6-GFP [2]): 1.57

Molecule: FLAG-Axin1 (from UniProt O15169) S493D; S497D
ratio to parent (LRP6-GFP [2]): 0.56

Molecule: His6x-Lip-L1_(LRP6) (LRP6_(1463-1538) bearing YYYF > A) (from UniProt O75581 1463-1538) (domain or fragment)
Kd [4]: 1.37 µM

Molecule: Axin1 LIRup peptide, 308-351 (from UniProt O15169) 43PPP peptide (pS317, pS321, pS325)
binding against the reference (Axin1 LIRα, 345-361): stronger

B2: His6x-Lip-A3_(Axin) (Axin_(308-426)) (domain or fragment, UniProt O15169 308-426, looked up)
chain: AGYALAPATSANDSEQQSLSSDADTLSLTDSSVDGIPPYRIRKQHRREMQESVQVNGRVPLPHIPRTYRVPKEVRVEPQKFAEELIHRLEAVQRTREAEEKLEERLKRVRMEEEGEDGD
notes: Axin1 fragment with LIR, PRTxR motif and GIR; source: E. coli BL21-CodonPlus(DE3)-RIL, purified (Ni-NTA, Superdex 75); 15N-labelled where observed by NMR; not shown: Lipoyl solubility tag (Lip), N-terminal, kept
binding result [6]: binds
Kd [3]: > 500 µM

B3: RKR mutant Axin Lip-LIRα (domain or fragment, UniProt O15169 345-361, looked up)
chain: PYAIRAQHRAEMQESVQ
notes: Axin1 LIRα with R347, K350, R354 changed to alanine; also called Lip-LIRα RKR > A; not shown: Lipoyl solubility tag (Lip), N-terminal, kept
fold reduction of binding against wt Lip-LIRα [7]: ~10 x

B6: His6x-Lip-SYRHFA peptide (peptide)
chain: {His6x-Lip}-SYRHFA
Kd [8]: 16.2 µM

B7: Lip-RKR > A (in Lip-A5_(Axin)) (domain or fragment)
chain: AGYALAPATSANDSEQQSLSSDADTLSLTDSSVDGIPPYAIRAQHRAEMQESVQVNGRV
Kd [9]: 5.15 µM

From publication PMC12095580, “Wnt signalosome assembly is governed by conformational flexibility of Axin and by the AP2 clathrin adaptor” (Nature Communications, 2025)
